Laboratory results: patent US20260116980A1
One block for each binder: values may come before it.

Key:
[1] = target: B7H3 on H358 tumor cells (UniProt Q5ZPR3); assay: flow cytometry on H358 cells, His-tag antibody iFluor 488 detection, four parameter logistic model
[2] = target: B7H3 on H358 tumor cells (UniProt Q5ZPR3); assay: flow cytometry on H358 cells, His-tag antibody iFluor 488 detection; MFImax of the four parameter fit
[3] = target: B7H3 on H358 tumor cells (UniProt Q5ZPR3); assay: FACS on H358 cells, 1 h on ice, fluorescence-labelled anti-human Fc

B7H3 on H358 tumor cells, sequence (Q5ZPR3 29-534): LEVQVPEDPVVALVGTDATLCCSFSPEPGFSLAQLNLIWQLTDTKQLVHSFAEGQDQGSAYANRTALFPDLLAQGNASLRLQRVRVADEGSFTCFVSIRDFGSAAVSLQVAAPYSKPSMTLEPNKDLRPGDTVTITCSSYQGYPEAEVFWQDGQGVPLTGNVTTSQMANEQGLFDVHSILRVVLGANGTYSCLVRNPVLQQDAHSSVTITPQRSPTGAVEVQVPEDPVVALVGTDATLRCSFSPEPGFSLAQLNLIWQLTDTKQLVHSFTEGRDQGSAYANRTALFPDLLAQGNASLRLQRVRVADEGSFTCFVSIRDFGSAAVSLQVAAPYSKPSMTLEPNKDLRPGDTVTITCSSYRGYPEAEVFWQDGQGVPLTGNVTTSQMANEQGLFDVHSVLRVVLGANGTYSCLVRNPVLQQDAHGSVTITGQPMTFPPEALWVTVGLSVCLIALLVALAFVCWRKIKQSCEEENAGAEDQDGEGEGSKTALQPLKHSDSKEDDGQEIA

EC50 [1]: 2.05 nM
MFI [2]: 782000
B1: scFv of BGA-6938 VL-VH (scFv)
scFv: EIVLTQSPGTLSLSPGERATLSCRTSQSINAILLAWYQQKPGQAPRLLIYGASSRATGIPDRFSGSGSGTDFTLSISRLEPEDFAVYYCQQYGSSPRTFGQGTKVEIKGGGGSGGGGSGGGGSGGGGSQVQLQESGPGLVKPSGTLSLTCAVSGGSISTSNYWNWVRQSPGKGLEWIGEIYPTGNTNYSPSLKSRVTISIDKSKNQFSLKLNSVTAADTAVYYCARGYNWFDPWGQGTLVTVSSHHHHHH

EC50 (read off the curve) [3]: 0.5 nM
B2: BGA-6938 in wildtype IgG1/kappa format (antibody, V domains shown)
VH: QVQLQESGPGLVKPSGTLSLTCAVSGGSISTSNYWNWVRQSPGKGLEWIGEIYPTGNTNYSPSLKSRVTISIDKSKNQFSLKLNSVTAADTAVYYCARGYNWFDPWGQGTLVTVSS
VL: EIVLTQSPGTLSLSPGERATLSCRTSQSINAILLAWYQQKPGQAPRLLIYGASSRATGIPDRFSGSGSGTDFTLSISRLEPEDFAVYYCQQYGSSPRTFGQGTKVEIKR
